The values below come from patent US20070003982.

The target in series [1] is full length αII-spectrin, rat (UniProt P16086).
The target in series [2] is full length αII-spectrin, rat, P16086.

With purified porcine calpain-2, the “αII-spectrin fragmentation patterns (Western blot after in vitro digestion of rat brain cortex lysate)” value in series [1] is reported as “calpain-produced SBDP150”.

B1: purified recombinant human caspase-3 (protein)
chain: SGISLDNSYKMDYPEMGLCIIINNKNFHKSTGMTSRSGTDVDAANLRETFRNLKYEVRNKNDLTREEIVELMRDVSKEDHSKRSSFVCVLLSHGEEGIIFGTNGPVDLKKITNFFRGDRCRSLTGKPKLFIIQACRGTELDCGIETDSGVDDDMACHKIPVEADFLYAYSTAPGYYSWRNSKDGSWFIQSLCAMLKQYADKLEFMHILTRVNRKVATEFESFSFDATFHAKKQIPCIVSMLTKELYFYH
Consider B1, for which the “αII-spectrin fragmentation patterns (Western blot after in vitro digestion of rat brain cortex lysate)” value in series [2] was “Caspase-3-produced SBP150i”.
